Measured values as given in publication PMC9489782.

Key:
[1] = molecular target: catalytically inactive full-length (FL) PAPP-A (E483A) (human)
[2] = molecular target: PAPP-A (1267) (human)
[3] = molecular target: PAPP-A triple mutant L1254A/F1257A/H1211A (human)
[4] = molecular target: PAPP-A^4C4S (C1112S, C1125S, C1130S and C1135S) (human)
[5] = molecular target: PAPP-A^1100-1135* (PAPP-A^1100-1135 replaced with PAPP-A2^1125-1162) (human)
[6] = molecular target: Wild type (WT) PAPP-A (auto-cleaved) (human) (UniProt Q13219); test: SEC; Superose 6 Increase 10/300 in 1X PBS, 0.5 mL/min; 0.2 mL of each protein at 1.4 uM; fractions on reduced SDS-PAGE
[7] = molecular target: IGFBP5 K128D (human) (UniProt P24593)
[8] = molecular target: FL IGFBP5 (human) (UniProt P24593)
[9] = molecular target: IGFBP5 K128A (human) (UniProt P24593)
[10] = molecular target: Wild type (WT) PAPP-A (auto-cleaved) (human) (UniProt Q13219)
[11] = molecular target: Wild type (WT) PAPP-A (auto-cleaved) (human) (UniProt Q13219); test: SEC-MALS; Superdex200 Increase 10/300 GL in PBS, 0.5 mL/min; PAPP-A and PAPP-A (E483A) 100 uL of 1 mg/mL; PAPP-A2 100 uL of 1, 3 and 6 mg/mL
[12] = molecular target: N-terminal Alexa Fluor 568 conjugated IGFBP5^121-143 (human); test: fluorescence polarisation; direct binding: 5 nM N-terminal Alexa Fluor 568 IGFBP5^121-143, serial dilutions of WT PAPP-A (5.65 uM to 33 nM), PBS, room temperature, read at 10 min; EC50 of the fit taken as KD
[13] = molecular target: FAM-labeled FL IGFBP5 (human) (UniProt P24593); test: fluorescence polarisation; direct binding: 5 nM FAM-labeled FL IGFBP5, serial dilutions of PAPP-A (E483A) (10 uM-50 nM), PBS, room temperature, read at 10 min; EC50 of the fit taken as KD
[14] = molecular target: chimeric PAPP-A^1100-1111* (loop 2 replaced by amino acids 1125-1136 from PAPP-A2) (human)

PAPP-A (1267), sequence (Q13219 23-1627): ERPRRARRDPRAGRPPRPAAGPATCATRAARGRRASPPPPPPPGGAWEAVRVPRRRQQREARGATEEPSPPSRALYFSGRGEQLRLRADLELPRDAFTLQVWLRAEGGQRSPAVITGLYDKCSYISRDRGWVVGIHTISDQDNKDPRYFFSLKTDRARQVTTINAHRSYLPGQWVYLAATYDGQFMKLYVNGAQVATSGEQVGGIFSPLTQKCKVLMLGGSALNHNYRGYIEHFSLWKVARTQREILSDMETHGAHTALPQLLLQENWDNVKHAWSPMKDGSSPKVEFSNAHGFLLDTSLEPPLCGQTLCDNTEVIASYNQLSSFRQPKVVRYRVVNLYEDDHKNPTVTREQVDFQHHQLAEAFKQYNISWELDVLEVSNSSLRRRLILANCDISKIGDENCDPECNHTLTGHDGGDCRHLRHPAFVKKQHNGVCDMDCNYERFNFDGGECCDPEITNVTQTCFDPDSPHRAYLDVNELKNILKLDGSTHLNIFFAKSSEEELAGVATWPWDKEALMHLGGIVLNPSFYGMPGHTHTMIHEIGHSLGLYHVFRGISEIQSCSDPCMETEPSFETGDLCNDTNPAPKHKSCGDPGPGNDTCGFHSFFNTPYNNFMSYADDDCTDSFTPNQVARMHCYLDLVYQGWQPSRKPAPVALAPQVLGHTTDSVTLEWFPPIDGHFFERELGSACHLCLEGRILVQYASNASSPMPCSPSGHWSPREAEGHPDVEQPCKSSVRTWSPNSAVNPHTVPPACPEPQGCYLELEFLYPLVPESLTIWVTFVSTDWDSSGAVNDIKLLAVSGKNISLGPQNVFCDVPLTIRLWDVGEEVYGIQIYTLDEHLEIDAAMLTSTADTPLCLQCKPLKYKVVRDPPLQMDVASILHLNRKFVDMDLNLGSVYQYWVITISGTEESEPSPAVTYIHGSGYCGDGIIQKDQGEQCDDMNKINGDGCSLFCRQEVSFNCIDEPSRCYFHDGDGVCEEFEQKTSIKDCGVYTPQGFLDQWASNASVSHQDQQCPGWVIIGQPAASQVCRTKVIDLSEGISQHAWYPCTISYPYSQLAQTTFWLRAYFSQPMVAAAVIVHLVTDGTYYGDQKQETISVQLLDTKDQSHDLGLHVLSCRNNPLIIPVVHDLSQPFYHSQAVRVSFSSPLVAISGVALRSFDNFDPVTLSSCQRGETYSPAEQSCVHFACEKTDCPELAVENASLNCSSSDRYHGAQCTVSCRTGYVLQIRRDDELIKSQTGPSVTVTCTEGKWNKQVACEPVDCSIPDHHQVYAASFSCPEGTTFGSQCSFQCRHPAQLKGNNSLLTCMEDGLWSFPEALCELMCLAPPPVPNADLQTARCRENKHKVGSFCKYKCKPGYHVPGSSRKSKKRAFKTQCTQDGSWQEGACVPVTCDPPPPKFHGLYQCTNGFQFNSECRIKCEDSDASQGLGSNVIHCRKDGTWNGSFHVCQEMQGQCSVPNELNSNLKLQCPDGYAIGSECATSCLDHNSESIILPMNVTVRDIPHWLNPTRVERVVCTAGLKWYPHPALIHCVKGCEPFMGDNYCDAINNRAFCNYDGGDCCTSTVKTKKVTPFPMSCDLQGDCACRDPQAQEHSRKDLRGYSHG

C-terminally truncated PAPP-A (1132) (domain or fragment)
EC50 of IGFBP4 cleavage (400 nM IGFBP4/700 nM IGF1) by the co-expressed PAPP-A (FL, E483A)/PAPP-A (1132) heterodimer, gel-based assay, 37 °C, 4 h [1]: 0.466 nM

PAPP-A (1267) (domain or fragment)
EC50 of IGFBP4 cleavage (400 nM IGFBP4/700 nM IGF1) by PAPP-A (1267), gel-based assay, 37 °C, 4 h [2]: 0.597 nM

PAPP-A triple mutant L1254A/F1257A/H1211A (enzyme)
EC50 of IGFBP4 cleavage (400 nM IGFBP4/700 nM IGF1) by the triple mutant, gel-based assay, 37 °C, 4 h [3]: 2.6 nM

PAPP-A^4C4S (C1112S, C1125S, C1130S and C1135S) (enzyme)
EC50 of IGFBP4 cleavage (400 nM IGFBP4/700 nM IGF1) by the variant, gel-based assay, 37 °C, 4 h [4]: 0.402 nM

PAPP-A^1100-1135* (PAPP-A^1100-1135 replaced with PAPP-A2^1125-1162) (enzyme)
EC50 of IGFBP4 cleavage (400 nM IGFBP4/700 nM IGF1) by the variant, gel-based assay, 37 °C, 4 h [5]: 0.954 nM

Wild type (WT) PAPP-A (auto-cleaved) (from UniProt Q13219 82-1627) (enzyme)
stoichiometry N [6]: 2 | EC50 (PAPP-A concentration) of proteolysis of 500 nM IGFBP5 K128D by WT PAPP-A, gel-based assay, 37 °C, 4 h [7]: 15.3 nM | EC50 (PAPP-A concentration) of proteolysis of 500 nM WT IGFBP5 by WT PAPP-A, gel-based assay, 37 °C, 4 h [8]: 0.053 nM | EC50 (PAPP-A concentration) of proteolysis of 500 nM IGFBP5 K128A by WT PAPP-A, gel-based assay, 37 °C, 4 h [9]: 1.3 nM | EC50 of IGFBP4 cleavage (400 nM IGFBP4/700 nM IGF1) by WT PAPP-A, gel-based assay, 37 °C, 4 h [10]: 0.026 nM | stoichiometry N [11]: 2 | Kd [12]: 380 nM

catalytically inactive full-length (FL) PAPP-A (E483A) (enzyme)
Kd [13]: 250 nM

chimeric PAPP-A^1100-1111* (loop 2 replaced by amino acids 1125-1136 from PAPP-A2) (enzyme)
EC50 of IGFBP4 cleavage (400 nM IGFBP4/700 nM IGF1) by the variant, gel-based assay, 37 °C, 4 h [14]: 0.519 nM
